The values that follow come from article PMC4917820, “Structural basis for autoinhibition and its relief of MOB1 in the Hippo pathway” (Scientific Reports, 2016).

Changes are numbered by the printed parent chain. Bounds are passed on as bounds.

In assay [1] the target is GST-N-terminal truncated MOB1B, N-terminal 10-residue truncated form (mouse) (UniProt Q8BPB0). Briefly: pull-down; GST-MOB1B and LATS1 proteins (40 μM) mixed 1:1 in 20 mM Tris-HCl (pH 7.5), 0.3 M NaCl, 1 mM DTT, applied to Glutathione Sepharose 4B, washed at 4 °C, eluted with glutathione, SDS-PAGE with Coomassie blue, band intensities.
The target in assay [2] is T1, double-mutant T12D/T35D MOB1B (1-216) (mouse, UniProt Q8BPB0 1-216, T12D | T35D).
T1 construct: MOB1B, mouse, residues 1-216, with T12D and T35D; everywhere else it is T12D/T35D; also called phosphomimic (T12D/T35D) double-mutant; MOB1B(T12/35D); source: E. coli, purified by the same procedure as full-length MOB1B (GST removed); not shown: GST, N-terminal, cleaved
T1 sequence (looked up): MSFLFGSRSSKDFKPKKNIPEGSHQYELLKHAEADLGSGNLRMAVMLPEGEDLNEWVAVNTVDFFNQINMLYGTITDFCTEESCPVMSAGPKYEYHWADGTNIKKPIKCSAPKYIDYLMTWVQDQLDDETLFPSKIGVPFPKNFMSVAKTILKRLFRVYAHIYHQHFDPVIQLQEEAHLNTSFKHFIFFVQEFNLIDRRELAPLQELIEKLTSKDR
Briefly: crystal structure; 1:1 molar ratio mixture of MOB1B and LATS1 (621-703) crystallised by vapor diffusion, MES pH 6.5, PEG. As to conditions: both partners purified.

For assay [3], the target named is T2, N-terminal truncated MOB1B (33-216) (mouse, UniProt Q8BPB0 33-216).
T2 construct: MOB1B, mouse, residues 33-216; also called N-terminal 32-residue truncated form; N-truncated MOB1B; source: E. coli, purified (Glutathione Sepharose 4B, HRV 3C digestion, HiTrap Q gradient, Superdex 75pg); not shown: GST, N-terminal, cleaved
T2 sequence (looked up): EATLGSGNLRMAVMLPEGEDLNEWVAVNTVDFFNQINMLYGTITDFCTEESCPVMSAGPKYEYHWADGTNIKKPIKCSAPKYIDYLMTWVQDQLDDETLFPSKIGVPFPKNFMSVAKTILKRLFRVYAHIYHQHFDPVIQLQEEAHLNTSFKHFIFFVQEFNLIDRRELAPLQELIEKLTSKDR
The assay is described as above. As to conditions: both partners purified.

Assay [4] concerns the target T3, GST-MOB1B, N-terminal 32-residue truncated form (33-216) (mouse, UniProt Q8BPB0 33-216).
T3 construct: MOB1B, mouse, residues 33-216; also called NΔ32; GST-N-truncated Δ32 MOB1B; source: E. coli; GST fusion, purification of this form not described; not shown: GST, N-terminal, kept
T3 sequence (looked up): T2 sequence (looked up)
Briefly: pull-down; GST-MOB1B and LATS1 proteins (40 μM) mixed 1:1 in 20 mM Tris-HCl (pH 7.5), 0.3 M NaCl, 1 mM DTT, applied to Glutathione Sepharose 4B, washed at 4 °C, eluted with glutathione, SDS-PAGE with Coomassie blue, band intensities. As to conditions: both partners purified.

The molecule “NTR domain of LATS1 (limits not told for this experiment) (domain or fragment)” returned a relative autoinhibition of LATS1 binding (full length 100%, NΔ32 0%) in assay [1] of 66%.

B1: NTR domain (residues 621-703) of LATS1 (domain or fragment, mouse, UniProt Q8BYR2 621-703, looked up)
chain: KDEERRESRIQSYSPQAFKFFMEQHVENVLKSHQQRLHRKKQLENEMMRVGLSQDAQDQMRKMLCQKESNYIRLKRAKMDKSM
notes: also called N-terminal regulation (NTR) domain of LATS1; source: E. coli BL21 (DE3) Star, resolubilized from the insoluble fraction, purified (Ni-NTA, HiTrap SP, Superdex 75pg)
On to B1, for which the binding result in assay [2], in assay [3] and in assay [4] was “binds” in each case.

B2: NTR domain (residues 604-703) of LATS1 (domain or fragment, mouse, UniProt Q8BYR2 604-703, looked up)
chain: KEKKQITTSPITVRKNKKDEERRESRIQSYSPQAFKFFMEQHVENVLKSHQQRLHRKKQLENEMMRVGLSQDAQDQMRKMLCQKESNYIRLKRAKMDKSM
notes: also called wild-type; source: E. coli BL21 (DE3) Star, resolubilized from the insoluble fraction, purified (Ni-NTA, HiTrap SP, Superdex 75pg)
On to B2, for which the binding result in assay [4] is “binds”.

B3: NTR domain (604-703) of LATS1, R696A (domain or fragment, mouse, UniProt Q8BYR2 604-703, looked up)
chain: B2 chain with R93A
notes: source: E. coli, resolubilized, purified (Ni-NTA, Superdex 75pg)
In the case of B3, in assay [4], the “binding relative to the wild-type” value is less than 20%.

B4: NTR domain (604-703) of LATS1, S689E (domain or fragment, mouse, UniProt Q8BYR2 604-703, looked up)
chain: B2 chain with S86E
notes: also called phosphomimetic substitution; source: E. coli, resolubilized, purified (Ni-NTA, Superdex 75pg)
B4: the “binding relative to the wild-type” value in assay [4] was less than 10%.

B5: NTR domain (604-703) of LATS1, R656A (domain or fragment, mouse, UniProt Q8BYR2 604-703, looked up)
chain: B2 chain with R53A
notes: as for B3
Consider B5, for which the “binding relative to the wild-type” value in assay [4] is less than 20%.

B6: NTR domain (604-703) of LATS1, R693A (domain or fragment, mouse, UniProt Q8BYR2 604-703, looked up)
chain: B2 chain with R90A
notes: as for B3
On to B6, for which the “binding relative to the wild-type” value in assay [4] was less than 20%.
